Sequences and labels used below:
B1: 17S U2 SnRNP complex component HTATSF1 (Homo sapiens), O43719 (parent)
chain: MSGTNLDGNDEFDEQLRMQELYGDGKDGDTQTDAGGEPDSLGQQPTDTPYEWDLDKKAWFPKITEDFIATYQANYGFSNDGASSSTANVEDVHARTAEEPPQEKAPEPTDARKKGEKRKAESGWFHVEEDRNTNVYVSGLPPDITVDEFIQLMSKFGIIMRDPQTEEFKVKLYKDNQGNLKGDGLCCYLKRESVELALKLLDEDEIRGYKLHVEVAKFQLKGEYDASKKKKKCKDYKKKLSMQQKQLDWRPERRAGPSRMRHERVVIIKNMFHPMDFEDDPLVLNEIREDLRVECSKFGQIRKLLLFDRHPDGVASVSFRDPEEADYCIQTLDGRWFGGRQITAQAWDGTTDYQVEETSREREERLRGWEAFLNAPEANRGLRRSDSVSASERAGPSRARHFSEHPSTSKMNAQETATGMAFEEPIDEKKFEKTEDGGEFEEGASENNAKESSPEKEAEEGCPEKESEEGCPKRGFEGSCSQKESEEGNPVRGSEEDSPKKESKKKTLKNDCEENGLAKESEDDLNKESEEEVGPTKESEEDDSEKESDEDCSEKQSEDGSEREFEENGLEKDLDEEGSEKELHENVLDKELEENDSENSEFEDDGSEKVLDEEGSEREFDEDSDEKEEEEDTYEKVFDDESDEKEDEEYADEKGLEAADKKAEEGDADEKLFEESDDKEDEDADGKEVEDADEKLFEDDDSNEKLFDEEEDSSEKLFDDSDERGTLGGFGSVEEGPLSTGSSFILSSDDDDDDI

Experimental findings from IntAct's records for PubMed 30567737 are described below.

This assay covers variants of B1. As to conditions: with SF3B1, O75533-1.
Sequence of SF3B1, O75533-1 (O75533 whole entry): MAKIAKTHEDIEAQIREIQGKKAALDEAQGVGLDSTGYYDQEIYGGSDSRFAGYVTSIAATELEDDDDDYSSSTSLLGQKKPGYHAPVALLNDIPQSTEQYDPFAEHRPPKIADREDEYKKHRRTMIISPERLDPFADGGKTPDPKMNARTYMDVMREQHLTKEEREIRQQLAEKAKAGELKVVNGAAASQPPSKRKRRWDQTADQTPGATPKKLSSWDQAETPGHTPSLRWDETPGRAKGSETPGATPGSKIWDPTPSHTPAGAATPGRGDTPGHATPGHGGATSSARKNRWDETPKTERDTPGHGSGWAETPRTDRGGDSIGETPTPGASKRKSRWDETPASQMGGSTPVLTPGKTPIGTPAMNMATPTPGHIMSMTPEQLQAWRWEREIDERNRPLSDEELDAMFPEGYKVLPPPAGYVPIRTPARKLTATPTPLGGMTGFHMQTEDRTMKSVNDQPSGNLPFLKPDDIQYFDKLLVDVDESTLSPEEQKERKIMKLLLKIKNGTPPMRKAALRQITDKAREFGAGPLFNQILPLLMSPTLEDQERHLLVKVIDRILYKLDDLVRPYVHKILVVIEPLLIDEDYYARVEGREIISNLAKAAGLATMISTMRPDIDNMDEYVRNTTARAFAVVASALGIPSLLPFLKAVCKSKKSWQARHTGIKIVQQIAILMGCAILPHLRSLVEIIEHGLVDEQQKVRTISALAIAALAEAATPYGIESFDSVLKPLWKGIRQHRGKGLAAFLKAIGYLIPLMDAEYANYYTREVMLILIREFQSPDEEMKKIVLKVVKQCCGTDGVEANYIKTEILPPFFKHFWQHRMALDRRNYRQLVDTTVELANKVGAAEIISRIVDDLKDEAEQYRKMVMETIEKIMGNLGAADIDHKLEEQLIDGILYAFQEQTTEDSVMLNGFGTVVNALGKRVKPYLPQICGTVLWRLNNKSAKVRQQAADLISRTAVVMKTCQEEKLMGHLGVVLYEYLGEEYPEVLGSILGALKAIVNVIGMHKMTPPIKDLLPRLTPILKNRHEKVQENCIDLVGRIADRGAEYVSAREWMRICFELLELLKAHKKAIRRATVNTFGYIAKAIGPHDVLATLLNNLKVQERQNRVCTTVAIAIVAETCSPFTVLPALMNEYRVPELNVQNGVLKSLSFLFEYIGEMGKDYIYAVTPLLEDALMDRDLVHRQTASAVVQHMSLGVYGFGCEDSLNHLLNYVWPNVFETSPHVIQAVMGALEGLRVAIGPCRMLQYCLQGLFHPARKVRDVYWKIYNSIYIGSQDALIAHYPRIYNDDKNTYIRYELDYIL
Take E286K;F337A: the “effect of a mutation on the interaction” value is “disrupting interaction strength”.
The result for E286K;D290K reads “disrupting interaction strength”.
